Laboratory results published in PMC10026030, “A short-chain acyl-CoA synthetase that supports branched-chain fatty acid synthesis in Staphylococcus aureus” (The Journal of Biological Chemistry, 2023).
Read-outs that look alike come from different tables or passages of the source.

Tests used:
[1] = target: T1, MbcS (methylbutyryl-CoA synthetase; SAUSA300_2542) (Staphylococcus aureus, UniProt A0A0H2XHR6); experiment: LC-MS/MS of acyl-CoA product, Michaelis-Menten fit; conditions: 2.5 mM ATP, 2.5 mM Mg2+, 200 μM CoA, Tris pH 7.5, 37 °C
T1 sequence (A0A0H2XHR6 1-532): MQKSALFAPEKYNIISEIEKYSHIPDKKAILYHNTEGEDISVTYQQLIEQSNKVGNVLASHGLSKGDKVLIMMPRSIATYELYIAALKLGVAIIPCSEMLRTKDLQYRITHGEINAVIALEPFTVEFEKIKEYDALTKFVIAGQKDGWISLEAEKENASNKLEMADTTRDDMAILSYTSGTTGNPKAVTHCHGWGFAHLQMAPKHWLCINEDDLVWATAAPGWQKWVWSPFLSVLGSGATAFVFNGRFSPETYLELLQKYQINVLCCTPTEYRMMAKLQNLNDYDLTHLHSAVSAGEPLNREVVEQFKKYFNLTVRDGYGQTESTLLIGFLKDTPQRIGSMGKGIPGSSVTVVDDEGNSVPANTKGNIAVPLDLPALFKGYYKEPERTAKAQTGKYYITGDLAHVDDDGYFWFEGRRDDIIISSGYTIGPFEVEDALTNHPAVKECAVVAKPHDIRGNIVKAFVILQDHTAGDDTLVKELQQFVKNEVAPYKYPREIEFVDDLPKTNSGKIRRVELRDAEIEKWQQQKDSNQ

[2] = substrate: CCCC(=O)O; experiment: purified protein; conditions: 2.5 mM ATP, 2.5 mM Mg2+, 200 μM CoA, Tris pH 7.5, 37 °C
[3] = substrate: Nc1ncnc2c1ncn2[C@@H]1O[C@H](COP(=O)(O)OP(=O)(O)OP(=O)(O)O)[C@@H](O)[C@H]1O; experiment: purified protein; conditions: 2.5 mM Mg2+, 200 μM CoA, 50 μM aC5, Tris pH 7.5, 37 °C
[4] = substrate: CC(C)(COP(=O)(O)OP(=O)(O)OC[C@H]1O[C@@H](n2cnc3c(N)ncnc32)[C@H](O)[C@@H]1OP(=O)(O)O)[C@@H](O)C(=O)NCCC(=O)NCCS; experiment: purified protein; conditions: 2.5 mM ATP, 2.5 mM Mg2+, 50 μM aC5, Tris pH 7.5, 37 °C

CC(C)CC(=O)O [iC5, isovalerate]
Km [1]: > 500 µM

CC(C)C(=O)O [iC4, isobutyrate]
Km ([1]; read-out: apparent KM): < 10 µM

B1: MbcS (methylbutyryl-CoA synthetase; SAUSA300_2542) (Staphylococcus aureus subsp. aureus USA300) (protein)
chain: T1 sequence (A0A0H2XHR6 1-532)
Km [2]: 144 µM | Km [3]: 3.2 ± 0.2 µM | Km [4]: 49.3 ± 6.9 µM
